Positions count from the first letter of the chain named. In names and notes the source's numbering stands.
B1: FUS-G156E-GFP (FUSm) (natural protein, human, UniProt P35637 1-526, looked up)
chain: MASNDYTQQATQSYGAYPTQPGQGYSQQSSQPYGQQSYSGYSQSTDTSGYGQSSYSSYGQSQNTGYGTQSTPQGYGSTGGYGSSQSSQSSYGQQSSYPGYGQQPAPSSTSGSYGSSSQSSSYGQPQSGSYSQQPSYGGQQQSYGQQQSYNPPQGYEQQNQYNSSSGGGGGGGGGGNYGQDQSSMSSGGGSGGGYGNQDQSGGGGSGGYGQQDRGGRGRGGSGGGGGGGGGGYNRSSGGYEPRGRGGGRGGRGGMGGSDRGGFNKFGGPRDQGSRHDSEQDNSDNNTIFVQGLGENVTIESVADYFKQIGIIKTNKKTGQPMINLYTDRETGKLKGEATVSFDDPPSAKAAIDWFDGKEFSGNPIKVSFATRRADFNRGGGNGRGGRGRGGPMGRGGYGGGGSGGGGRGGFPSGGGGGGGQQRAGDWKCPNPTCENMNFSWRNECNQCKAPKPDGPGGGPGGSHMGGNYGDDRRGGRGGYDRGGYRGRGGDRGGFRGGRGGGDRGGFGPGKMDSRGEHRQDRRERPY
notes: FUS (fused in sarcoma), human, UniProt P35637, with G156E; also called FUSm-GFP; source: Sf9 cells, purified as described (Patel et al., 2015); not shown: 5 AA tag used for purification, N-terminal, kept; GFP, C-terminal, kept
B2: HspB8-WT (natural protein, UniProt Q9UJY1 1-196, looked up)
chain: MADGQMPFSCHYPSRLRRDPFRDSPLSSRLLDDGFGMDPFPDDLTASWPDWALPRLSSAWPGTLRSGMVPRGPTATARFGVPAEGRTPPPFPGEPWKVCVNVHSFKPEELMVKTKDGYVEVSGKHEEKQQEGGIVSKNFTKKIQLPAEVDPVTVFASLSPEGLLIIEAPQVPPYSTFGESSFNNELPQDSQEVTCT
notes: small heat shock protein HspB8; IDR printed as AA1-71 and alpha-crystallin domain as AA72-196; The article's keywords name Human as organism; also called small heat shock protein HspB8; source: E. coli BL21 Codon RIL, purified (GST, PreScission cleavage, reverse GST, ResourceQ); not shown: GST, N-terminal, cleaved
B3: HspB8-K141E (natural protein, UniProt Q9UJY1 1-196, looked up)
chain: B2 chain with K141E
notes: small heat shock protein HspB8 with the Charcot-Marie Tooth disease-associated mutation K141E in the alpha-crystallin domain; Same construct as m2 with K141E; also called K141E mutant; HspB8-K141E mutant; source: E. coli BL21 Codon RIL, purified (GST, PreScission cleavage, reverse GST, ResourceQ); not shown: GST, N-terminal, cleaved

Columns and labels:
[1] = target: the molecule itself; experiment: cross-linking; quantitative XL-MS of FUSm alone: low salt (75 mM KCl, condensates) against high salt (500 mM KCl, no phase separation); 1.9 mM H12/D12 DSS, 30 min, 37°C
[2] = target: T1, Taf-15 (UniProt Q92804 1-592); experiment: MST; 33 nM FUSm, partner titrated; non-phase separating conditions (500 mM KCl); details: both partners purified
T1 construct: stress granule protein Taf-15; no methods for its production; also called stress granule protein Taf-15

[3] = target: B1; experiment: cross-linking; XL-MS of FUSm (or FUSm_K9) mixed with the partner under condensate-inducing low salt (75 mM): low-salt mixture or dense phase separated by centrifugation; H12/D12 DSS, 30 min, 37°C; also 3 hr after formation and with an RNA oligonucleotide; details: both partners purified

T1 sequence (Q92804 whole entry): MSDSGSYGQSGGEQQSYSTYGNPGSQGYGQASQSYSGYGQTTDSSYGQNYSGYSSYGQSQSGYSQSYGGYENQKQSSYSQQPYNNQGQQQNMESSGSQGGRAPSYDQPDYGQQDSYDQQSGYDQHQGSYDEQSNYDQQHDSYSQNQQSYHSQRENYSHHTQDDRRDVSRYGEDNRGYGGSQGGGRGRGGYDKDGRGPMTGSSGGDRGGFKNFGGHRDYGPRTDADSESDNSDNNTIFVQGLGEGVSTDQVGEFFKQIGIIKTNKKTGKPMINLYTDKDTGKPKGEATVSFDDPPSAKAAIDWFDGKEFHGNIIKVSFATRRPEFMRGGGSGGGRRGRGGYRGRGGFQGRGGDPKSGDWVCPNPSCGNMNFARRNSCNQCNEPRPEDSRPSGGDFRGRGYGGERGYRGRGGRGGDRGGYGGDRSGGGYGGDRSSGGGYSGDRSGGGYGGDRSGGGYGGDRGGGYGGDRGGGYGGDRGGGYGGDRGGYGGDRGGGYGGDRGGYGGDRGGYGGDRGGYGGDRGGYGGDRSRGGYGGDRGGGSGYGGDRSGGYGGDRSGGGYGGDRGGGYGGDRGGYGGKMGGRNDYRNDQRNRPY

| Binder | binding result [1] | Kd [2] [nM] | binding result [3] |
| --- | --- | --- | --- |
| B1 | binds | 260 |  |
| B2 |  |  | binds |
| B3 |  |  | binds |
